In US20200247894A1 (Regeneron, published 2020):
Blank lines part the entries; values can stand above or below the binder they belong to.

What was measured:
[1] = biological target: T1, Human IL2Rγ extracellular domain expressed with a C-terminal mouse IgG2a Fc tag (human); test: SPR Biacore 4000, anti-hFc-captured mAb, 25 C; no dissociation observed, kd manually fixed at 1.00E-05
T1 construct: whole entry is the Fc-fused construct; also called hIL-2Rg-mFc
T1 chain: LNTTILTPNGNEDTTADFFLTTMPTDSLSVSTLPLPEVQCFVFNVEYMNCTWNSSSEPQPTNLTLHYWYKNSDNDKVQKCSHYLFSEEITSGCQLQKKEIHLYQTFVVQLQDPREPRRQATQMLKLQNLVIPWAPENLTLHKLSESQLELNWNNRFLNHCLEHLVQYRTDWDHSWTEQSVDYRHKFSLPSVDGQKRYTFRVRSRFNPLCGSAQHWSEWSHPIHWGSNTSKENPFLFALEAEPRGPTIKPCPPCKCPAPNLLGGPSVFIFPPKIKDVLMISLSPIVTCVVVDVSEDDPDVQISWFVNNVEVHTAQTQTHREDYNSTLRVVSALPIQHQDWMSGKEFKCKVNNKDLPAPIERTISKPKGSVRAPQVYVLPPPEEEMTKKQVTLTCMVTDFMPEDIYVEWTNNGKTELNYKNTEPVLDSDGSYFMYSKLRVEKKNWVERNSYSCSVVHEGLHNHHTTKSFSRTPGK

[2] = biological target: T1, Human IL2Rγ extracellular domain …; test: SPR Biacore 4000, anti-hFc-captured mAb, 25 C; computed with kd fixed at 1.00E-05
Method: (§1) Equilibrium dissociation constants (KD values) for IL-2Rγ binding to purified anti-IL2Rγ monoclonal antibodies were determined using a Biacore 4000 instrument equipped with a real-time surface plasmon resonance biosensor. All binding studies were performed in 10 mM HEPES, 150 mM NaCl, 3 mM EDTA, and 0.05% v/v Surfactant Tween-20, pH 7.4 (HBS-ET) running buffer at 25° C. and 37° C. The Biacore sensor surface was first derivatized by amine coupling with a monoclonal mouse anti-human Fc antibody (GE, # BR-1008-39) to capture anti-IL2Rγ monoclonal antibodies.
(§2) The dissociation of monoclonal antibody bound IL2Rγ reagents were monitored for 8-10 minutes in HBS-ET running buffer. Kinetic association (kₐ) and dissociation (kd) rate constants were determined by fitting the real-time sensorgrams to a 1:1 binding model using Scrubber 2.0c curve fitting software. Binding dissociation equilibrium constants (KD) and dissociative half-lives (t_{1/2}) were calculated from the kinetic rate constants as: […]

[3] = biological target: T1, Human IL2Rγ extracellular domain …; test: SPR Biacore 4000, anti-hFc-captured mAb, 25 C
Summary of the method: (§3)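 HBS-ET running buffer (10 mM HEPES, 150 mM NaCl, 3 mM EDTA, 0.05% Tween-20, pH 7.4). mAb capture via anti-human Fc. Dissociation monitored 8-10 min. 1:1 kinetic fit; KD, t1/2 derived from ka/kd.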

[4] = biological target: T2, Rat IL2Rγ extracellular domain expressed with a C-terminal myc-myc-hexahistidine tag (rat); test: SPR Biacore 4000, anti-hFc-captured mAb, 25 C
T2 construct: whole entry is the tagged construct; also called rIL-2Rg-MMH; rat IL-2Rg-MMH
T2 chain: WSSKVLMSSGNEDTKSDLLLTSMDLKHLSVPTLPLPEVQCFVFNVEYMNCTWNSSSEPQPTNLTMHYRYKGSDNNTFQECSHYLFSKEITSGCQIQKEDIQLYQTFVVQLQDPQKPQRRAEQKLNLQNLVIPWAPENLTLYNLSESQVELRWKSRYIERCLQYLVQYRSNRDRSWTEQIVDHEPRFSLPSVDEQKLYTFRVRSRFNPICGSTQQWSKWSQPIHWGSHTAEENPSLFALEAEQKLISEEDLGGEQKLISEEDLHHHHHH
Summary of the method: as §3

[5] = biological target: T3, Mouse IL2Rγ extracellular domain expressed with a C-terminal myc-myc-hexahistidine tag (mouse); test: SPR Biacore 4000, anti-hFc-captured mAb, 25 C
T3 construct: whole entry is the tagged construct; also called mIL-2Rg-MMH
T3 chain: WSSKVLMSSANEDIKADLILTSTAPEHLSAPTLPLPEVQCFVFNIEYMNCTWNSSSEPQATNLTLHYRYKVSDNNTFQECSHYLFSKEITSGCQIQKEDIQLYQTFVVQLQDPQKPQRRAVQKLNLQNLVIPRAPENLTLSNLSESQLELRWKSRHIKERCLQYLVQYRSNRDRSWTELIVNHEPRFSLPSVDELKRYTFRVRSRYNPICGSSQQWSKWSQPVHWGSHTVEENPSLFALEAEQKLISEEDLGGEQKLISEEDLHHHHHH
Summary of the method: as §3

[6] = biological target: T1, Human IL2Rγ extracellular domain …; test: SPR Biacore 4000, anti-hFc-captured mAb, 37 C; no dissociation observed, kd manually fixed at 1.00E-05
[7] = biological target: T1, Human IL2Rγ extracellular domain …; test: SPR Biacore 4000, anti-hFc-captured mAb, 37 C; computed with kd fixed at 1.00E-05
Method: as §1, §2

[8] = biological target: T1, Human IL2Rγ extracellular domain …; test: SPR Biacore 4000, anti-hFc-captured mAb, 37 C
Summary of the method: as §3

[9] = biological target: T4, Macaca fascicularis IL2Rγ extracellular domain expressed with a C-terminal myc-myc-hexahistidine tag (Macaca fascicularis); test: SPR Biacore 4000, anti-hFc-captured mAb, 37 C
T4 construct: whole entry is the tagged construct; also called mfIL-2Rg-MMH
T4 chain: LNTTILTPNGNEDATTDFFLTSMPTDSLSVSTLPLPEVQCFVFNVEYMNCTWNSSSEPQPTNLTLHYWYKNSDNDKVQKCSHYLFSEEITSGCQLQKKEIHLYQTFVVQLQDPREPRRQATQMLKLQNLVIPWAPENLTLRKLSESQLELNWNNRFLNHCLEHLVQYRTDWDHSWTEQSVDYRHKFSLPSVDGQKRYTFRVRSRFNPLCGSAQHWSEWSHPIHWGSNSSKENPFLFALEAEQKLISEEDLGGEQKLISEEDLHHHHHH
Summary of the method: as §3

[10] = biological target: T2, Rat IL2Rγ extracellular domain …; test: SPR Biacore 4000, anti-hFc-captured mAb, 37 C
Summary of the method: as §3

[11] = biological target: T3, Mouse IL2Rγ extracellular domain …; test: SPR Biacore 4000, anti-hFc-captured mAb, 37 C
Summary of the method: as §3

[12] = biological target: T5, D1 domain of human IL-2Rγ extracellular domain expressed with a C-terminal myc-myc-hexahistidine tag (human); test: SPR, mAb captured on anti-hFc, 25 C
T5 construct: also called human IL2Rγ domain 1
T5 chain: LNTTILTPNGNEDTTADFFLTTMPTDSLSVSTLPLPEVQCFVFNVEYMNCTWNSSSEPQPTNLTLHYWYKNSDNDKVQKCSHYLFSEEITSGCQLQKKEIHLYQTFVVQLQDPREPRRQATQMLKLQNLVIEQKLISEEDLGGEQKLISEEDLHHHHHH
Summary of the method: as §3

[13] = biological target: T6, human IL2Rγ (endogenously expressed on cells) (human, UniProt P31785 23-369); test: cell-based or functional assay
T6 sequence (looked up): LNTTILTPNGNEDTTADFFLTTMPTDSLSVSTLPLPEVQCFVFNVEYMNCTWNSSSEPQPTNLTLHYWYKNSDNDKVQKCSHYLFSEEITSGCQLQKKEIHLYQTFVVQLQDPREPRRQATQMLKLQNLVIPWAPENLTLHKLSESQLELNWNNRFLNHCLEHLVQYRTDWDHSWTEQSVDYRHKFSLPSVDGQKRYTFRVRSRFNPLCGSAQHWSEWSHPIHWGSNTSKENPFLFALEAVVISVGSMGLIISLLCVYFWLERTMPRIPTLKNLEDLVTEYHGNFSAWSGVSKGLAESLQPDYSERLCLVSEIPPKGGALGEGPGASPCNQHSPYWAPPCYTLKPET

[14] = biological target: T6, human IL2Rγ (endogenously expressed on …); test: cell-based or functional assay; remark: listed apart in the source
[15] = biological target: T6, human IL2Rγ (endogenously expressed on …); test: cell-based or functional assay; remark: listed apart in the source
[16] = biological target: T5, D1 domain of human IL-2Rγ extracellular …; test: SPR, mAb captured on anti-hFc, 37 C
Summary of the method: as §3

[17] = biological target: T7, D2 domain of human IL2Rγ extracellular domain expressed with a C-terminal myc-myc-hexahistidine tag (human); test: SPR, mAb captured on anti-hFc, 25 C
T7 construct: also called human IL2Rγ domain 2
T7 chain: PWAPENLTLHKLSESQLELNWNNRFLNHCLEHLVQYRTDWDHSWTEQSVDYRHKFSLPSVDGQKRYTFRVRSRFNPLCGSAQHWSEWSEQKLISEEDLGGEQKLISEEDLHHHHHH
Summary of the method: (§4)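 Anti-IL2Rγ antibodies held on an anti-human Fc capture surface with receptor binding to them.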

[18] = biological target: T7, D2 domain of human IL2Rγ extracellular …; test: SPR, mAb captured on anti-hFc, 37 C
Summary of the method: as §4

[19] = biological target: T8, human IL-2Rγ expressed on cells (human, UniProt P31785 23-369); test: flow cytometry on NK-92 cells, antibody at 10 µg/ml, MFI of sample over MFI of unstained; lower end, tied to H4H12859P by Table 9-1
T8 construct: whole, on cells; on cells it stands together with the cytokine-specific receptor subunits; also called IL-2Rgamma; CD132
T8 sequence (looked up): T6 sequence (looked up)
Method: For flow cytometry analyses, the cells were pre-incubated with mouse IgG at 100 μg/ml for 15 minutes at room temperature (RT) to block the binding of the antibodies to Fc receptors. […] Cells were washed, fixed using BD CytoFix™ (BD biosciences, #554655) and analyzed on an IQue® (Intellicyt®) Flow Cytometer or Accuri Flow cytometer (BD). […] The results were analyzed using ForeCyt® (IntelliCyt®) software to determine the geometric means of fluorescence (MFI) for viable cells. Binding ratios were calculated by normalizing the MFI of the test sample by the MFI of the unstained sample.

koff [1]: ≤ 1e-05 s⁻¹
Kd [2]: ≤ 0.131 nM
t1/2 [2]: ≥ 1160 min
50 nM Ag Bound [3]: 11 RU
kon [3]: 76200 M⁻¹ s⁻¹
100 nM Ag Bound [4]: 19 RU
Kd [4]: 79.3 nM
koff [4]: 0.00237 s⁻¹
kon [4]: 29800 M⁻¹ s⁻¹
t1/2 [4]: 5 min
100 nM Ag Bound [5]: 25 RU
Kd [5]: 108 nM
koff [5]: 0.00367 s⁻¹
kon [5]: 34100 M⁻¹ s⁻¹
t1/2 [5]: 3.1 min
koff [6]: ≤ 1e-05 s⁻¹
Kd [7]: ≤ 0.518 nM
t1/2 [7]: ≥ 1160 min
50 nM Ag Bound [8]: 8 RU
kon [8]: 19300 M⁻¹ s⁻¹
100 nM Ag Bound [9]: 13 RU
Kd [9]: 39.8 nM
koff [9]: 0.00148 s⁻¹
kon [9]: 37100 M⁻¹ s⁻¹
t1/2 [9]: 8 min
100 nM Ag Bound [10]: 8 RU
Kd [10]: 215 nM
koff [10]: 0.00835 s⁻¹
kon [10]: 38900 M⁻¹ s⁻¹
t1/2 [10]: 1.4 min
100 nM Ag Bound [11]: 6 RU
Kd [11]: 387 nM
koff [11]: 0.0293 s⁻¹
kon [11]: 75700 M⁻¹ s⁻¹
t1/2 [11]: 0.4 min
B1: H4H12908P (antibody, human IgG4 S228P, kappa, V domains shown)
VH: EVQLVESGGRLVQPGGSLRLSCEASGFTFSNYGMTWVRQAPGKGLEWVSVISGSDNRKYYAESVKGRFTISRDNSKNTLYLQMNSLRAEDTAVYYCAKLGYSRSSKDFYYGMDVWGQGTTVTVSS
VL: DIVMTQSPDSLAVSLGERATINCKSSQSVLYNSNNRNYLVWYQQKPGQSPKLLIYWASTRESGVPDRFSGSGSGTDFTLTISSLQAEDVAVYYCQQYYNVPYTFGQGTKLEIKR
notes: fully human anti-IL2Rgamma mAb, human IgG4 Fc

100 nM Ag Bound [12]: 50 RU
Kd [12]: 3.32 nM
koff [12]: 0.000839 s⁻¹
kon [12]: 252000 M⁻¹ s⁻¹
t½ [12]: 14 min
IC50; IL-2 (10 nM)-induced STAT phosphorylation, human CD4+ T cells [13]: 1.87 nM
IC50; IL-4 (50 pM)-induced STAT phosphorylation, human CD4+ T cells [13]: 8.54e-10 M
IC50; IL-7 (1 pM)-induced STAT phosphorylation, human CD4+ T cells [13]: 5.8e-10 M
IC50; IL-15 (0.5 nM)-induced STAT phosphorylation, human CD4+ T cells [13]: 2.46 nM
IC50; IL-21 (50 pM)-induced STAT phosphorylation, human CD4+ T cells [13]: 2.21e-09 M
IC50; IL-2 30 pM; NK92/hIL7R/STAT3-luc [14]: 1.6e-08 M
IC50; IL-4 250 pM; Ramos.2G6.4C10/STAT3-luc [14]: 1.3e-09 M
IC50; IL-7 50 pM; NK92/hIL7R/STAT3-luc [14]: 2.6e-09 M
IC50; IL-9 20 pM; NK92/hIL7R/STAT3-luc [14]: 3.1e-09 M
IC50; IL-15 60 pM; NK92/hIL7R/STAT3-luc [14]: 9.3e-09 M
IC50; IL-21 5 pM; NK92/hIL7R/STAT3-luc [14]: > 1e-07 M
Max Inhibition (%); IL-2 30 pM; NK92/hIL7R/STAT3-luc [14]: 85%
Max Inhibition (%); IL-4 250 pM; Ramos.2G6.4C10/STAT3-luc [14]: 100%
Max Inhibition (%); IL-7 50 pM; NK92/hIL7R/STAT3-luc [14]: 98%
Max Inhibition (%); IL-9 20 pM; NK92/hIL7R/STAT3-luc [14]: 99%
Max Inhibition (%); IL-15 60 pM; NK92/hIL7R/STAT3-luc [14]: 91%
Max Inhibition (%); IL-21 5 pM; NK92/hIL7R/STAT3-luc [14]: 49%
IC50; IL-9 (2 nM)-induced STAT3 phosphorylation, in vitro differentiated human mast cells [15]: 0.416 nM
100 nM Ag Bound [16]: 26 RU
Kd [16]: 4.13 nM
koff [16]: 0.00168 s⁻¹
kon [16]: 407000 M⁻¹ s⁻¹
t½ [16]: 7 min
100 nM Ag Bound [17]: 2 RU
binding result [17]: no binding (tested: 100 nM)
100 nM Ag Bound [18]: 3 RU
B2: H4H12922P2 (antibody, human IgG4 S228P, kappa, V domains shown)
VH: QVQLVESGGGVVKPGGSLRLSCAASGFTFSNSGIHWVRQAPGKGLEWVALISYAGSNKYYADSVKGRFTISRDNSKNTLSLQMNSLRAEDTAVYYCAKEVWTGTYDSFDMWGRGTMVTVSS
VL: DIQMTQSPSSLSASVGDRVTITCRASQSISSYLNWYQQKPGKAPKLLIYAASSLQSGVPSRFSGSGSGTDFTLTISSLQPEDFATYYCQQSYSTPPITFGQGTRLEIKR
notes: human IgG4; also called REGN7256

binding ratio [19]: 1
B3: H4H12859P (antibody, human IgG4 S228P, kappa, V domains shown)
VH: QVQLVQSGAEVKKPGASVRVSCKASGYTFTDYDIHWVRQAPGHGLEWMGWINPNSGGTNYAQKFQGRVTMTRDTSISTVYMDLSRLRSDDTAVYYCARADYSSSYYYYGMDVWGQGTTVTVSS
VL: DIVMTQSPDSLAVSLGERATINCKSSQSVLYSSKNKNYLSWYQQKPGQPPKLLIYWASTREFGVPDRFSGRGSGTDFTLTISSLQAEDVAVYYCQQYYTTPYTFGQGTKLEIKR
notes: fully human anti-IL2Rγ antibody, human IgG4
